Target: T1, human C5 (human, UniProt P01031 19-673; P01031 678-1676, Beta and alpha chains are disulfide-linked and the protein is glycosylated.)
T1 construct: Either in-house recombinant C5 or plasma derived C5 (CALBIOCHEM) was used; also called recombinant human C5; plasma derived human C5
Assay: Biacore, captured antibody, pH 7.4, 37 C;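 note: biacore binding response of anti-C5 antibody light chain variants captured on chip with human C5 injected, ACES running buffer containing 1.2 mM CaCl₂, parent light chain antibody set to 100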
Experimental: The light chain variants were tested for the binding affinity to C5 at pH 7.4 and at 37 degrees C. using Biacore T200 instrument (GE Healthcare) or Biacore 4000 instrument (GE Healthcare). […] Anti-C5 antibodies were captured on an immobilized molecule, and then human C5 was injected. The running buffer used was pH 7.4 ACES Buffer containing 1.2 mM Ca (20 mM ACES, 150 mM NaCl, 1.2 mM CaCl₂, 0.05% Tween 20). A value, % binding, was determined by normalizing binding response with that of antibody comprising parent light chain as 100.

Row | Binder | % binding (parent = 100)
1 | CFP0018 18L 30T (antibody, V domains shown) VH: QVQLVQSGAEVKKPGSSVKVSCKASGGTFSSYAISWVRQAPGQGLEWMGGIIPIFGTANYAQKFQGRVTITADESTSTAYMELSSLRSEDTAVYYCARQLYGYYELDIWGQGTLVTVSS VL: DIQMTQSPSSLSASVGDRVTITCRASQSITDDLAWYQQKPGKAPKLLIYEASSLQSGVPSRFSGSGSGTDFTLTISSLQPEDFATYYCQQYNSYPLTFGQGTKVEIK | 90.7%
2 | CFP0018 18L 30Y (antibody, V domains shown) VH: QVQLVQSGAEVKKPGSSVKVSCKASGGTFSSYAISWVRQAPGQGLEWMGGIIPIFGTANYAQKFQGRVTITADESTSTAYMELSSLRSEDTAVYYCARQLYGYYELDIWGQGTLVTVSS VL: DIQMTQSPSSLSASVGDRVTITCRASQSIYDDLAWYQQKPGKAPKLLIYEASSLQSGVPSRFSGSGSGTDFTLTISSLQPEDFATYYCQQYNSYPLTFGQGTKVEIK | 82.4%
3 | CFP0018 18L 53N (antibody, V domains shown) VH: QVQLVQSGAEVKKPGSSVKVSCKASGGTFSSYAISWVRQAPGQGLEWMGGIIPIFGTANYAQKFQGRVTITADESTSTAYMELSSLRSEDTAVYYCARQLYGYYELDIWGQGTLVTVSS VL: DIQMTQSPSSLSASVGDRVTITCRASQSISDDLAWYQQKPGKAPKLLIYEASNLQSGVPSRFSGSGSGTDFTLTISSLQPEDFATYYCQQYNSYPLTFGQGTKVEIK | 91.2%
4 | CFP0018 18L 92S (antibody, V domains shown) VH: QVQLVQSGAEVKKPGSSVKVSCKASGGTFSSYAISWVRQAPGQGLEWMGGIIPIFGTANYAQKFQGRVTITADESTSTAYMELSSLRSEDTAVYYCARQLYGYYELDIWGQGTLVTVSS VL: DIQMTQSPSSLSASVGDRVTITCRASQSISDDLAWYQQKPGKAPKLLIYEASSLQSGVPSRFSGSGSGTDFTLTISSLQPEDFATYYCQQYSSYPLTFGQGTKVEIK | 104%
5 | CFP0018 18L 32N (antibody, V domains shown) VH: QVQLVQSGAEVKKPGSSVKVSCKASGGTFSSYAISWVRQAPGQGLEWMGGIIPIFGTANYAQKFQGRVTITADESTSTAYMELSSLRSEDTAVYYCARQLYGYYELDIWGQGTLVTVSS VL: DIQMTQSPSSLSASVGDRVTITCRASQSISDNLAWYQQKPGKAPKLLIYEASSLQSGVPSRFSGSGSGTDFTLTISSLQPEDFATYYCQQYNSYPLTFGQGTKVEIK | 527%
6 | CFP0018 18L 92T (antibody, V domains shown) VH: QVQLVQSGAEVKKPGSSVKVSCKASGGTFSSYAISWVRQAPGQGLEWMGGIIPIFGTANYAQKFQGRVTITADESTSTAYMELSSLRSEDTAVYYCARQLYGYYELDIWGQGTLVTVSS VL: DIQMTQSPSSLSASVGDRVTITCRASQSISDDLAWYQQKPGKAPKLLIYEASSLQSGVPSRFSGSGSGTDFTLTISSLQPEDFATYYCQQYTSYPLTFGQGTKVEIK | 95.1%
7 | CFP0018 18L 53H (antibody, V domains shown) VH: QVQLVQSGAEVKKPGSSVKVSCKASGGTFSSYAISWVRQAPGQGLEWMGGIIPIFGTANYAQKFQGRVTITADESTSTAYMELSSLRSEDTAVYYCARQLYGYYELDIWGQGTLVTVSS VL: DIQMTQSPSSLSASVGDRVTITCRASQSISDDLAWYQQKPGKAPKLLIYEASHLQSGVPSRFSGSGSGTDFTLTISSLQPEDFATYYCQQYNSYPLTFGQGTKVEIK | 94.4%
8 | CFP0018 18L 92P (antibody, V domains shown) VH: QVQLVQSGAEVKKPGSSVKVSCKASGGTFSSYAISWVRQAPGQGLEWMGGIIPIFGTANYAQKFQGRVTITADESTSTAYMELSSLRSEDTAVYYCARQLYGYYELDIWGQGTLVTVSS VL: DIQMTQSPSSLSASVGDRVTITCRASQSISDDLAWYQQKPGKAPKLLIYEASSLQSGVPSRFSGSGSGTDFTLTISSLQPEDFATYYCQQYPSYPLTFGQGTKVEIK | 64.5%
9 | CFP0018 18L 53T (antibody, V domains shown) VH: QVQLVQSGAEVKKPGSSVKVSCKASGGTFSSYAISWVRQAPGQGLEWMGGIIPIFGTANYAQKFQGRVTITADESTSTAYMELSSLRSEDTAVYYCARQLYGYYELDIWGQGTLVTVSS VL: DIQMTQSPSSLSASVGDRVTITCRASQSISDDLAWYQQKPGKAPKLLIYEASTLQSGVPSRFSGSGSGTDFTLTISSLQPEDFATYYCQQYNSYPLTFGQGTKVEIK | 44.5%
10 | CFP0018 18L 31N (antibody, V domains shown) VH: QVQLVQSGAEVKKPGSSVKVSCKASGGTFSSYAISWVRQAPGQGLEWMGGIIPIFGTANYAQKFQGRVTITADESTSTAYMELSSLRSEDTAVYYCARQLYGYYELDIWGQGTLVTVSS VL: DIQMTQSPSSLSASVGDRVTITCRASQSISNDLAWYQQKPGKAPKLLIYEASSLQSGVPSRFSGSGSGTDFTLTISSLQPEDFATYYCQQYNSYPLTFGQGTKVEIK | 130%
11 | CFP0018 18L 92E (antibody, V domains shown) VH: QVQLVQSGAEVKKPGSSVKVSCKASGGTFSSYAISWVRQAPGQGLEWMGGIIPIFGTANYAQKFQGRVTITADESTSTAYMELSSLRSEDTAVYYCARQLYGYYELDIWGQGTLVTVSS VL: DIQMTQSPSSLSASVGDRVTITCRASQSISDDLAWYQQKPGKAPKLLIYEASSLQSGVPSRFSGSGSGTDFTLTISSLQPEDFATYYCQQYESYPLTFGQGTKVEIK | 40.9%
12 | CFP0018 18L 92D (antibody, V domains shown) VH: QVQLVQSGAEVKKPGSSVKVSCKASGGTFSSYAISWVRQAPGQGLEWMGGIIPIFGTANYAQKFQGRVTITADESTSTAYMELSSLRSEDTAVYYCARQLYGYYELDIWGQGTLVTVSS VL: DIQMTQSPSSLSASVGDRVTITCRASQSISDDLAWYQQKPGKAPKLLIYEASSLQSGVPSRFSGSGSGTDFTLTISSLQPEDFATYYCQQYDSYPLTFGQGTKVEIK | 31.7%
13 | CFP0018 18L 92Q (antibody, V domains shown) VH: QVQLVQSGAEVKKPGSSVKVSCKASGGTFSSYAISWVRQAPGQGLEWMGGIIPIFGTANYAQKFQGRVTITADESTSTAYMELSSLRSEDTAVYYCARQLYGYYELDIWGQGTLVTVSS VL: DIQMTQSPSSLSASVGDRVTITCRASQSISDDLAWYQQKPGKAPKLLIYEASSLQSGVPSRFSGSGSGTDFTLTISSLQPEDFATYYCQQYQSYPLTFGQGTKVEIK | 125%
14 | CFP0018 18L 32Q (antibody, V domains shown) VH: QVQLVQSGAEVKKPGSSVKVSCKASGGTFSSYAISWVRQAPGQGLEWMGGIIPIFGTANYAQKFQGRVTITADESTSTAYMELSSLRSEDTAVYYCARQLYGYYELDIWGQGTLVTVSS VL: DIQMTQSPSSLSASVGDRVTITCRASQSISDQLAWYQQKPGKAPKLLIYEASSLQSGVPSRFSGSGSGTDFTLTISSLQPEDFATYYCQQYNSYPLTFGQGTKVEIK | 21.9%
15 | CFP0018 18L 50D (antibody, V domains shown) VH: QVQLVQSGAEVKKPGSSVKVSCKASGGTFSSYAISWVRQAPGQGLEWMGGIIPIFGTANYAQKFQGRVTITADESTSTAYMELSSLRSEDTAVYYCARQLYGYYELDIWGQGTLVTVSS VL: DIQMTQSPSSLSASVGDRVTITCRASQSISDDLAWYQQKPGKAPKLLIYDASSLQSGVPSRFSGSGSGTDFTLTISSLQPEDFATYYCQQYNSYPLTFGQGTKVEIK | 22.2%

Source: patent publication US20180016327A1 (Chugai, published 2018)
